Square brackets hold non-standard residues; d marks the D form. MeBmt = C/C=C/C[C@@H](C)[C@@H](O)[C@H](NC)C(=O)O; NMeI = CC[C@H](C)[C@H](NC)C(=O)O; NMeL = CN[C@@H](CC(C)C)C(=O)O; NMeV = CN[C@H](C(=O)O)C(C)C; Abu = CC[C@H](N)C(=O)O; Sar = CNCC(=O)O
Assays:
[1] = molecular target: cyclophilin (Sigma); assay: cell-based or functional assay
[2] = molecular target: T1, human recombinant cyclophilin A (Sigma) (human, UniProt P62937 1-165); assay: chymotrypsin-coupled spectrophotometric PPIase assay, tight binding inhibitor fit
T1 construct: Bought protein
T1 sequence (P62937 whole entry): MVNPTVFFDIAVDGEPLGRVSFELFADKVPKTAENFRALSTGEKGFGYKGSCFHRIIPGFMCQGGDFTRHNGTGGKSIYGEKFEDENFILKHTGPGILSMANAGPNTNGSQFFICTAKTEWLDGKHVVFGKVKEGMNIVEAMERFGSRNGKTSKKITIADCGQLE

cyclophilin (Sigma), sequence (P62937 whole entry): as above

- PPIase (IC50 of inhibition of cyclophilin PPIase activity, relative to cyclosporin A = 1.0) [1]: 0.5 relative to CsA
- Ki [2]: 2.11 nM
B1: [MeIle]^4-CsA (peptide)
peptide: cyclo([MeBmt][Abu][Sar][NMeI]V[NMeL]A[dA][NMeL][NMeL][NMeV])
notes: also called [Melle]^4-CsA; NIM811
